Results on 2 substances are retold here after patent publication US20140072582A1.

The target in the assay is complement component C1q human serum (Sigma Cat#:C1740-0.5MG) (human) (UniProt P02745). In words: ELISA, C1q coated on the plate.
Chain of UniProt P02745 (P02745 23-245 limits assumed, chain 1 of 3): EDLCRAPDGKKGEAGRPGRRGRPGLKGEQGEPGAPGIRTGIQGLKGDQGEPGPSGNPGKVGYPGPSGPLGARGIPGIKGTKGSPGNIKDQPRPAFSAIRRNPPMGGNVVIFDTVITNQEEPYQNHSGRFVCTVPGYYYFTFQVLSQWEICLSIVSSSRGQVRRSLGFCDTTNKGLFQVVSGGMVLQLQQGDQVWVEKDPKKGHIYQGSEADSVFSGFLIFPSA
Chain of UniProt P02745 (P02746 28-253 limits assumed, chain 2 of 3, further chain): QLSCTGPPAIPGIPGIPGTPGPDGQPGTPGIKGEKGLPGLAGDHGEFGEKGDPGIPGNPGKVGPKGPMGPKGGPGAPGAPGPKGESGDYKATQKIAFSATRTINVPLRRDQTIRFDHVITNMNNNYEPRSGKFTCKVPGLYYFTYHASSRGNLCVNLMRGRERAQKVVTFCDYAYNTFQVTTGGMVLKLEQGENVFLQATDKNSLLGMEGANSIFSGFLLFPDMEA
Chain of UniProt P02745 (P02747 29-245 limits assumed, chain 3 of 3, further chain): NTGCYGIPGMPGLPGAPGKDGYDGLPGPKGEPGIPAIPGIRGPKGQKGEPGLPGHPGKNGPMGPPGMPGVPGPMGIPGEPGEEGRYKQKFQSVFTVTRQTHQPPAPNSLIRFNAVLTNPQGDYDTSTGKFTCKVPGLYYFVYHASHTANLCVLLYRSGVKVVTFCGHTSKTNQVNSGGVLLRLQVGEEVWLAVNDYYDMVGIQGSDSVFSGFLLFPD

Turning to “GB4500 (Rituximab), anti-CD20 monoclonal antibody”, the EC50 (as a rule, the concentration giving half of the maximal effect) is 34.5 mg/L. As for “GB7500 (Adalimumab), anti-TNF monoclonal antibody”, the figure is 202 mg/L.
